Experimental data as given in article PMC2191965 (The Journal of Experimental Medicine, 1995).

What was measured:
I-As = target: T1, I-As (Mus musculus, UniProt P06345+P14437); type: binding; settings: purified I-As; compared with ROIV or with wild-type peptide
T1 sequence (P14437 1-233): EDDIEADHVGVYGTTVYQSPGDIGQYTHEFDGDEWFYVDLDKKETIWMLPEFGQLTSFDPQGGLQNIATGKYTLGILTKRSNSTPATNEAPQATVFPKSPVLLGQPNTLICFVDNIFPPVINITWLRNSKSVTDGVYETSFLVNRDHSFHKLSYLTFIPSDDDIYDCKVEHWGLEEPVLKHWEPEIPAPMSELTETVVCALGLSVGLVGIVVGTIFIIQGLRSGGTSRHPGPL
T1 sequence (P06345 28-263): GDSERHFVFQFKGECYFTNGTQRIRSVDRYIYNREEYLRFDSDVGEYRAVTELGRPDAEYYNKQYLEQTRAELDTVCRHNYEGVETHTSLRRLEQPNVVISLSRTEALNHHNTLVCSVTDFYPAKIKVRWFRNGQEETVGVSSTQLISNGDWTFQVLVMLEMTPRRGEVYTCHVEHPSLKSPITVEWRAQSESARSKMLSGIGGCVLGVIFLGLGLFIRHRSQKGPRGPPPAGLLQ

I-Ab = target: T2, I-Ab (Mus musculus, UniProt P14434+P14483); settings: purified I-Ab; compared with binding to I-As or with wild-type peptide
T2 sequence (P14434 24-256): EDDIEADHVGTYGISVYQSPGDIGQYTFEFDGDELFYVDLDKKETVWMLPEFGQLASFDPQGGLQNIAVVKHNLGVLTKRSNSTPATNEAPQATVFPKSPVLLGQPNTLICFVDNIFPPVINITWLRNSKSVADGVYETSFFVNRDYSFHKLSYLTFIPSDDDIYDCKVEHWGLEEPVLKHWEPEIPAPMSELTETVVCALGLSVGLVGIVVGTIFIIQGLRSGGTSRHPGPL
T2 sequence (P14483 28-265): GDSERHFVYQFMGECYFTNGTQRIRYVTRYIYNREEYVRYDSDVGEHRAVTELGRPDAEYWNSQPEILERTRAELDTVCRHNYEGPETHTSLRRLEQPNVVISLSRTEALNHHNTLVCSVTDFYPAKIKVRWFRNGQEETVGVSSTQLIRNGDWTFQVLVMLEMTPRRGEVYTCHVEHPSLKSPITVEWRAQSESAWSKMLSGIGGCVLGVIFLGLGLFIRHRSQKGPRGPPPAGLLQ

Binding to I-As, in words (I-As): as well as the ROW
Binding to I-Ab, in words (I-Ab): far less affinity
Substance: myelin basic protein 81-100: I-As-restricted epitope myelin basic protein 81-100 (HPADPGNRPHLIRLFSRDAP; UniProt P04370 81-100, looked up, fragment)
